The results in this text go back to the supplement of paper PMC9112550, “Optimization of the antimicrobial peptide Bac7 by deep mutational scanning” (BMC Biology, 2022).

This data set relates to Escherichia coli TOP10. Kind of data set: shrunken log2 fold change of peptide-encoding DNA abundance (4.5 h post-induction vs induction); higher = less antimicrobial activity (less host growth inhibition). Conditions: time post-induction: 4.5 h; library: site-saturation at positions 5, 18, 19, 20.
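Also: peptides expressed intracellularly from a pBAD plasmid library in pooled LB shake-flask culture, induced with 0.3% L-arabinose, DNA abundance read by NGS, three biological replicates, DESeq2 with apeglm shrinkage.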

For the sequence RRIRWRPPRLPRPRPRPIEHPRP, the “shrunken log2 fold change” value was -0.133.
With RRIRHRPPRLPRPRPRPQVKPRP the figure was -1.6; with RRIRERPPRLPRPRPRPKASPRP, 0.0444.
With RRIRCRPPRLPRPRPRPNAQPRP the figure was 0.164.
With RRIRARPPRLPRPRPRPRSIPRP the figure was -0.0101.
As to RRIRVRPPRLPRPRPRPNFIPRP, the “shrunken log2 fold change” value was -0.168.
With RRIRTRPPRLPRPRPRPGMKPRP the figure was -0.0344.
With RRIRKRPPRLPRPRPRPNLAPRP the figure was 0.25.
With RRIRFRPPRLPRPRPRPSDAPRP the figure was -0.00375.
RRIRQRPPRLPRPRPRPCTFPRP: the “shrunken log2 fold change” value is -0.121.
With RRIRKRPPRLPRPRPRPVYHPRP the figure was 0.0002; with RRIRFRPPRLPRPRPRPWSAPRP, -0.429; with RRIRHRPPRLPRPRPRPSWQPRP, 0.0601.
Take RRIRIRPPRLPRPRPRPEAKPRP: the “shrunken log2 fold change” value was 0.0733.
With RRIRNRPPRLPRPRPRPSETPRP the figure was -0.083.
With RRIRKRPPRLPRPRPRPEIDPRP the figure was 2.84; with RRIRTRPPRLPRPRPRPDANPRP, -0.103.
With RRIRCRPPRLPRPRPRPHWFPRP the figure was -0.0681; with RRIRNRPPRLPRPRPRPEVPPRP, 0.095; with RRIRQRPPRLPRPRPRPPVLPRP, 0.155.
On to RRIRSRPPRLPRPRPRPMLDPRP, for which the “shrunken log2 fold change” value was -0.291.
Consider RRIRARPPRLPRPRPRPAGCPRP, for which the “shrunken log2 fold change” value stood at 0.648.
With RRIRYRPPRLPRPRPRPPFPPRP the figure was -0.0826.
With RRIRCRPPRLPRPRPRPKTMPRP the figure was -0.172; with RRIRKRPPRLPRPRPRPGRKPRP, 0.0872; with RRIRQRPPRLPRPRPRPWQNPRP, 0.0546.
With RRIRQRPPRLPRPRPRPNVKPRP the figure was 0.0117; with RRIRCRPPRLPRPRPRPMREPRP, 0.907.
As for RRIRRRPPRLPRPRPRPPEIPRP, the “shrunken log2 fold change” value is -0.17.
Regarding RRIRMRPPRLPRPRPRPSPQPRP, the “shrunken log2 fold change” value came out at 0.716.
With RRIRKRPPRLPRPRPRPTTHPRP the figure was 0.495.
With RRIRSRPPRLPRPRPRPVEKPRP the figure was -0.0804; with RRIRVRPPRLPRPRPRPMWVPRP, 0.0736.
With RRIRARPPRLPRPRPRPIGCPRP the figure was 0.445; with RRIRYRPPRLPRPRPRPLDWPRP, 0.171.
Regarding RRIRCRPPRLPRPRPRPPTLPRP, the “shrunken log2 fold change” value was -0.0423.
With RRIRGRPPRLPRPRPRPGVCPRP the figure was 0.892; with RRIRFRPPRLPRPRPRPNQPPRP, -0.136.
With RRIRPRPPRLPRPRPRPTELPRP the figure was -0.126.
With RRIRDRPPRLPRPRPRPKLPPRP the figure was 0.0818.
As for RRIRIRPPRLPRPRPRPNYQPRP, the “shrunken log2 fold change” value was -0.43.
With RRIRDRPPRLPRPRPRPPGSPRP the figure was 0.511; with RRIRERPPRLPRPRPRPGSVPRP, 0.00838; with RRIRIRPPRLPRPRPRPKITPRP, -0.83.
Take RRIRHRPPRLPRPRPRPPETPRP: the “shrunken log2 fold change” value is 0.0733.
With RRIRSRPPRLPRPRPRPMQIPRP the figure was 0.141; with RRIRERPPRLPRPRPRPKCPPRP, 0.0136; with RRIRQRPPRLPRPRPRPNLQPRP, 0.0864.
Consider RRIRARPPRLPRPRPRPWCNPRP, for which the “shrunken log2 fold change” value was -0.536.
With RRIRLRPPRLPRPRPRPEINPRP the figure was -0.0201.
With RRIRHRPPRLPRPRPRPYFQPRP the figure was -0.935; with RRIRNRPPRLPRPRPRPYRTPRP, -0.268; with RRIRRRPPRLPRPRPRPGGVPRP, 0.483.
With RRIRARPPRLPRPRPRPELEPRP the figure was 1.88; with RRIRVRPPRLPRPRPRPRCVPRP, 0.0659.
RRIRDRPPRLPRPRPRPDPTPRP: the “shrunken log2 fold change” value worked out at 0.0932.
With RRIRGRPPRLPRPRPRPLHIPRP the figure was 0.105.
With RRIRTRPPRLPRPRPRPQVMPRP the figure was -0.133.
With RRIRERPPRLPRPRPRPSWGPRP the figure was -0.102; with RRIRLRPPRLPRPRPRPPWQPRP, 0.594; with RRIRLRPPRLPRPRPRPNHGPRP, -0.17.
Turning to RRIRLRPPRLPRPRPRPYPRPRP, the “shrunken log2 fold change” value was -0.0678.
As to RRIRPRPPRLPRPRPRPMDSPRP, the “shrunken log2 fold change” value is -0.0149.
On to RRIRGRPPRLPRPRPRPNGAPRP, for which the “shrunken log2 fold change” value was 0.827.
With RRIRSRPPRLPRPRPRPDDGPRP the figure was 0.00408.
With RRIRGRPPRLPRPRPRPWCTPRP the figure was -0.0466; with RRIRARPPRLPRPRPRPVWYPRP, -0.395; with RRIRCRPPRLPRPRPRPAPWPRP, 0.438.
For the sequence RRIRGRPPRLPRPRPRPGDAPRP, the “shrunken log2 fold change” value was found to be 1.09.
With RRIRVRPPRLPRPRPRPFRPPRP the figure was -0.324; with RRIRQRPPRLPRPRPRPFMGPRP, -0.0627; with RRIRWRPPRLPRPRPRPQQLPRP, -0.289.
Turning to RRIRMRPPRLPRPRPRPGSDPRP, the “shrunken log2 fold change” value was determined as 1.4.
With RRIRTRPPRLPRPRPRPLWPPRP the figure was 0.216; with RRIRDRPPRLPRPRPRPASHPRP, 0.0378.
With RRIRNRPPRLPRPRPRPEKSPRP the figure was 0.31; with RRIRWRPPRLPRPRPRPWVRPRP, -0.172; with RRIRPRPPRLPRPRPRPMFFPRP, -0.207.
With RRIRWRPPRLPRPRPRPKGCPRP the figure was -0.00617.
Turning to RRIRLRPPRLPRPRPRPQIFPRP, the “shrunken log2 fold change” value is -0.165.
With RRIRRRPPRLPRPRPRPQGKPRP the figure was 0.0379.
With RRIRLRPPRLPRPRPRPAKWPRP the figure was 0.388; with RRIRFRPPRLPRPRPRPTPTPRP, 0.471; with RRIRHRPPRLPRPRPRPAAEPRP, 0.334.
RRIRWRPPRLPRPRPRPDCIPRP: the “shrunken log2 fold change” value stood at 0.0529.
With RRIRDRPPRLPRPRPRPVTRPRP the figure was 0.348; with RRIRRRPPRLPRPRPRPVLAPRP, 0.83; with RRIRDRPPRLPRPRPRPRNYPRP, -0.313.
With RRIRRRPPRLPRPRPRPTMSPRP the figure was 0.315.
With RRIRFRPPRLPRPRPRPDKIPRP the figure was -0.0546.
As to RRIRSRPPRLPRPRPRPWAIPRP, the “shrunken log2 fold change” value is -0.191.
